The values below come from paper PMC10319729.

The target of test [1] is ZNRF3ΔRING (ZNRF3 with deletion of the RING domain) on HEK293T cells (UniProt Q9ULT6). The test is described as follows: whole-cell binding, fluorescence plate reader; Fc-tagged ligand in 3x serial dilution on cells in 96-well plates, on ice 1 h, washed, fixed with 4.2% paraformaldehyde, Alexa555-labeled anti-human IgG antibody; half-maximum binding (KD) from a three-parameter dose-response fit.

Test [2] deals with RNF43-ECDTM (RNF43 extracellular domain anchored by its transmembrane domain) on HEK293T cells (UniProt Q68DV7). The test is described as above.
For test [3], the target named is LGR5ΔCT (human LGR5 without the cytoplasmic C-terminal tail) on HEK293 cells (human) (UniProt O75473). The description is as above.
The target in test [4] is LGR4 (HA-LGR4) over-expressed on HEK293 cells (UniProt Q9BXB1). Described as above.
The target in test [5] is LGR5ΔCT (human LGR5 without the cytoplasmic C-terminal tail) on HEK293 cells (human) (UniProt O75473). In words: whole-cell binding, fluorescence plate reader; His-tagged ligand in 3x serial dilution on cells in 96-well plates, on ice 1 h, washed, fixed with 4.2% paraformaldehyde, Alexa488-labeled anti-His antibody; half-maximum binding (KD) from a three-parameter dose-response fit.

pKd: −log10 of the molar value.

RNF43-ECDTM (RNF43 extracellular domain anchored by its transmembrane domain) on HEK293T cells, sequence (Q68DV7 24-218): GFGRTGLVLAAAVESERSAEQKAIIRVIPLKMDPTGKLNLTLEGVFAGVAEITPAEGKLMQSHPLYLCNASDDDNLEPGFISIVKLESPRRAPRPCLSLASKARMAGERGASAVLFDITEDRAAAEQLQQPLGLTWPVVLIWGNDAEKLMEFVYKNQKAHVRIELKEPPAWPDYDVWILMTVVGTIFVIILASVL

Turning to “R2Fu-Q70R-bFc (bivalent RSPO2 furin domain with Gln70 to Arg) (from UniProt Q6UXX9 22-243) (Fc fusion)”, the pKd in test [1] is 8.54; in test [2] it was 8.20.

Regarding “R2Fu-Q70R-mFc (monovalent RSPO2 furin domain with Gln70 to Arg) (from UniProt Q6UXX9 22-243) (Fc fusion)”, the pKd in test [1] and in test [2] was under 7.00 each time. Turning to “R2Fu-bFc (RSPO2 furin domain fused to wild-type IgG1-Fc, bivalent) (from UniProt Q6UXX9 37-143) (Fc fusion)”, the figures for the pKd in test [3] and in test [4] were 9.10 and 8.80, respectively. “R2Fu-mFc (RSPO2 furin domain fused to monomeric human IgG4-Fc, monovalent) (from UniProt Q6UXX9 37-143) (Fc fusion)”: the pKd in test [3] is 8.85; in test [4], under 7.30. In test [5], “R2FuTSP-His (RSPO2 furin domain with TSP domain, His-tagged) (from UniProt Q6UXX9 22-205) (domain or fragment)” had a pKd of 8.59. Same read-out and setting: the figure for “RSPO2 furin domain with a C-terminal His tag (R2Fu-His) (from UniProt Q6UXX9 37-143) (domain or fragment)” is 8.72.
